In experiment [1] the target is T1, heat-denatured soluble collagen type I (90 min at 98 °C) (human, UniProt P02452 179-1192; P08123 91-1104).
T1 construct: also called Collagen denatured; heat-denatured collagen
The experiment in a line: SPR, Aegyptin over immobilized heat-denatured collagen type I, two-state model; Ka1. On the technique in general: Surface plasmon resonance follows binding to a sensor surface in real time, without labels.

Experiment [2] has as its target T2, soluble collagen type III (pepsin-digested, non-fibrillar; BD Biosciences) (human, UniProt P02461 168-1196).
T2 construct: also called collagen III; soluble collagen III
T2 sequence: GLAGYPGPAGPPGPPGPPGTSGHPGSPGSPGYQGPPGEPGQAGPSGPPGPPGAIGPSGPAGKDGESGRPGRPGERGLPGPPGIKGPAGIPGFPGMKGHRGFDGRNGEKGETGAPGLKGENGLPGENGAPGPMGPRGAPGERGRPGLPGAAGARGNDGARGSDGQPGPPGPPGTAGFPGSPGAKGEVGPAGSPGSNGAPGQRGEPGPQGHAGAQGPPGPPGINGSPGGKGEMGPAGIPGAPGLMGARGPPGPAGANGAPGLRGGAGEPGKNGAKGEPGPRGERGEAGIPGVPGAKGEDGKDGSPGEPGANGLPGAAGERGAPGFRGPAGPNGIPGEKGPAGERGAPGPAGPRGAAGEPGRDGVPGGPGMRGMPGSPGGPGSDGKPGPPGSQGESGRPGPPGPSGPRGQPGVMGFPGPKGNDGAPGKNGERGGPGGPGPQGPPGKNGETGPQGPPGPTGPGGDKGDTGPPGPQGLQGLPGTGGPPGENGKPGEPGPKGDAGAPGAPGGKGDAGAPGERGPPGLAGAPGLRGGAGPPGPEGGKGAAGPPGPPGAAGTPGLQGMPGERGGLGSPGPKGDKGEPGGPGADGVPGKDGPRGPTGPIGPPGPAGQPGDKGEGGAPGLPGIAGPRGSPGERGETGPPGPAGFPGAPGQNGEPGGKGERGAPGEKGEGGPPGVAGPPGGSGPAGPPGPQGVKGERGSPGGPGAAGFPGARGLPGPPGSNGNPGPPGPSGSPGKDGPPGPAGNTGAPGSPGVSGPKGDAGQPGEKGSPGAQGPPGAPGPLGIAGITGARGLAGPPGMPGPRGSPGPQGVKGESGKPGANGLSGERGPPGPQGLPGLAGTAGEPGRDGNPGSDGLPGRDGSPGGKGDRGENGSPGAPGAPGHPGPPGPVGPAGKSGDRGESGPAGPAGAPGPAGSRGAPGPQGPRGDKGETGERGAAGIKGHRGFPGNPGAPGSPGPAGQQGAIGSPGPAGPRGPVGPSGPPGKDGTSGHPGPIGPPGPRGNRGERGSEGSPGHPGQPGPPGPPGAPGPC
The experiment in a line: ELISA, inhibition of vWf (3 nM) binding to coated soluble collagen type III; competitor vWf. Background: In an ELISA, binding on a coated surface is turned into a signal by an enzyme label.

For experiment [3], the target named is T3, soluble collagen type I (pepsin-digested, non-fibrillar, triple helical; BD Biosciences) (human, UniProt P02452 179-1192; P08123 91-1104).
T3 construct: also called collagen I; monomeric type I collagen
T3 sequence (P02452 179-1192 limits assumed, chain 1 of 2): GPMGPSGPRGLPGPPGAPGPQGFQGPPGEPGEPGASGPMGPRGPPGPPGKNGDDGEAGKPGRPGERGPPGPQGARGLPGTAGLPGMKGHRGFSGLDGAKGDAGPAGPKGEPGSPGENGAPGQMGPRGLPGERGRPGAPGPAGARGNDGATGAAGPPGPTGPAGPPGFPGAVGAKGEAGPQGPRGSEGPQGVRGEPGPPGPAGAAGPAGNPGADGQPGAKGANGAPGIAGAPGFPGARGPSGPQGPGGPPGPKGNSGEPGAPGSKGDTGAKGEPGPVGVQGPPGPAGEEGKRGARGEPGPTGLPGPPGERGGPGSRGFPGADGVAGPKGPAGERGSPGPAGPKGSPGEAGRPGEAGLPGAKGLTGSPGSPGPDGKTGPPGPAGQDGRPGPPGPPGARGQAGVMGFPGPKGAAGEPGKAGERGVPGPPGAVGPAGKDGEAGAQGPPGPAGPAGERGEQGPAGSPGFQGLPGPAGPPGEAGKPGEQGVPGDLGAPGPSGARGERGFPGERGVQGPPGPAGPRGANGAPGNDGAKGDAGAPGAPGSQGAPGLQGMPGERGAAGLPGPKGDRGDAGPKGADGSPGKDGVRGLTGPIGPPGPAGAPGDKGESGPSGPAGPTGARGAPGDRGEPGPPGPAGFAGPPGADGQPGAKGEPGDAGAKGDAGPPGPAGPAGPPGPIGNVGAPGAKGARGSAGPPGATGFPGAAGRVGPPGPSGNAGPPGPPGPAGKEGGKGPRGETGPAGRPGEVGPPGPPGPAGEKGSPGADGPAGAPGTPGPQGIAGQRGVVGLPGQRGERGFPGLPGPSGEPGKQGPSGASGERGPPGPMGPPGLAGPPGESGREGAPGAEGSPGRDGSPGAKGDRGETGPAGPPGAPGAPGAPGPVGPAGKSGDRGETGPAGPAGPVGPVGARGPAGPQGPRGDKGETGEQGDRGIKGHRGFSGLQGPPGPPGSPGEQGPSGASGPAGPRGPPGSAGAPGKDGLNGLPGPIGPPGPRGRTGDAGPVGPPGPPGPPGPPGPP
T3 sequence (P08123 91-1104 limits assumed, chain 2 of 2): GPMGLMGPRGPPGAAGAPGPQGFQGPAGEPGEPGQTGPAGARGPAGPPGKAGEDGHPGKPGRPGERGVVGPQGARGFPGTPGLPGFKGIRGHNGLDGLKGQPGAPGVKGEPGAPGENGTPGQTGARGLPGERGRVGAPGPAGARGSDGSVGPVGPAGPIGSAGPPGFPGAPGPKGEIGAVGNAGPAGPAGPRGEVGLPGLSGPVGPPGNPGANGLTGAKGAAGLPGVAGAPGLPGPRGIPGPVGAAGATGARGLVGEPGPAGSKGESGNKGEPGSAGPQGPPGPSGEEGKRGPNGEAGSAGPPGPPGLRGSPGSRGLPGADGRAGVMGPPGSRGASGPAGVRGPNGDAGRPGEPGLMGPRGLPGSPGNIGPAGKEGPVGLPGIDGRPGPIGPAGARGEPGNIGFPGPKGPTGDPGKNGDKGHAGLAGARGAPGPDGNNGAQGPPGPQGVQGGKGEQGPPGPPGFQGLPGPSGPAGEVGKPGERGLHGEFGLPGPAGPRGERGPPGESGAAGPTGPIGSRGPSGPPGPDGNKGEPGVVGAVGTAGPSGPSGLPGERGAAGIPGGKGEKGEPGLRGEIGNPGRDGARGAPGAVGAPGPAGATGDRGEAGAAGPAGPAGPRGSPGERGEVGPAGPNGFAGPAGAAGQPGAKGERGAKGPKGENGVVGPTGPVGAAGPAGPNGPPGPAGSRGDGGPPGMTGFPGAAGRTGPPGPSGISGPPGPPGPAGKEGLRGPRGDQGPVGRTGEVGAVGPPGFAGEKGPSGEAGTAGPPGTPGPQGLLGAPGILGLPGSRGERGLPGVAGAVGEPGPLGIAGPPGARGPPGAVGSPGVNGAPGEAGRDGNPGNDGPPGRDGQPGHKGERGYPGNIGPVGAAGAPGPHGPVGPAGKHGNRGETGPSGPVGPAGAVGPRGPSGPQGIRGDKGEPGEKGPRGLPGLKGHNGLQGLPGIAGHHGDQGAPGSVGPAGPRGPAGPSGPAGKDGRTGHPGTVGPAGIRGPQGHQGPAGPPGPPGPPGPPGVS
The experiment can be described thus: SPR at 15-40 °C, van't Hoff analysis, Aegyptin over immobilized collagen type I; value (±SE).

For experiment [4], the target named is T3, soluble collagen type I …. The experiment can be described thus: SPR, Aegyptin over immobilized soluble collagen type I, 180 s at 30 µl/min, two-state model; Ka1.
In experiment [5] the target is T3, soluble collagen type I …. The experiment in a line: SPR, global two-state binding model, immobilized soluble collagen type I.
In experiment [6] the target is T3, soluble collagen type I …. The experiment can be described thus: SPR, C-terminus-2 (5 to 250 nM) over immobilized soluble collagen type I, two-state model.
In experiment [7] the target is T3, soluble collagen type I …. The experiment in a line: SPR, […]; concentration not given.

We go through three molecules from patent US20130123349A1 (US Dept. of Health and Human Services, published 2013).

T1 sequence (P02452 179-1192, chain 1 of 2): as the sequence (P02452 179-1192 limits assumed, chain 1 of 2) above
T1 sequence (P08123 91-1104, chain 2 of 2): as the sequence (P08123 91-1104 limits assumed, chain 2 of 2) above

B1: recombinant Aegyptin (other)
chain: RPMPEDEEPVAEGGDDDASGESEGEEETTDDAGGDGGEEENEGEEHAGDKDAGGEDTGKEENTGHDDAGEEDAGEEDAGEEDAGEEDAGEEDAEKEEGEKEDAGDDAGSDDGEEDSTGGDEGEDNAEDSKGSEKNDPADTYRQVVALLDKDTKVDHIQSEYLRSALNNDLQSEVRVPVVEAIGRIGDYSKIQGCFKSMGKDVKKVISEEEKKFKSCMSKKKSEYQCSEDSFAAAKSKLSPITSKIKSCVSSKGRHHHHHH
Broadly, the kon is the rate constant with which the complex forms. One may read the IC50 as the concentration at which inhibition is half-maximal. As to B1, the kon in experiment [1] was determined as 674000 M⁻¹ s⁻¹; in experiment [4] it was 3.63e+06 M⁻¹ s⁻¹. The same molecule displayed a concentration for half-maximal inhibition (IC50) in experiment [2] of 50 nM. The “ΔS°” value in experiment [3] was 95 J/(K * mol).

B2: C-terminus-2 of Aegyptin (137 aa) (other)
chain: GGDEGEDNAEDSKGSEKNDPADTYRQVVALLDKDTKVDHIQSEYLRSALNNDLQSEVRVPVVEAIGRIGDYSKIQGCFKSMGKDVKKVISEEEKKFKSLMSKKKSEYQCSEDSFAAAKSKLSPITSKIKSCVSSKGR
notes: also called C-terminal-2; C-terminus 2 domain
The term Kd denotes the free concentration of one partner at which half of the binding sites on the other are occupied at equilibrium, for simple one-to-one binding. Higher therefore signals weaker binding. Turning to B2, the Kd was 60.9 nM in experiment [5] and roughly 60 nM in experiment [6].

B3: C-terminus 1 of Aegyptin (113 aa) (other)
chain: RQVVALLDKDTKVDHIQSEYLRSALNNDLQSEVRVPVVEAIGRIGDYSKIQGCFKSMGKDVKKVISEEEKKFKSCMSKKKSEYQCSEDSFAAAKSKLSPITSKIKSCVSSKGR
In the case of B3, the binding result in experiment [7] was “no binding”.
